± gives the standard deviation of the averaged measurements.
Assay: total protein half-life in vivo (active degradation + dilution); higher = more stable protein
[1] = E. coli NCM3722 delta-clpP delta-lon delta-hslV, growth: N-lim chemostat, doubling time 6 h
[2] = E. coli NCM3722 delta-clpP, growth: N-lim chemostat, doubling time 6 h
[3] = E. coli NCM3722 delta-hslV, growth: N-lim chemostat, doubling time 6 h
[4] = E. coli NCM3722 delta-lon, growth: N-lim chemostat, doubling time 6 h
[5] = E. coli NCM3722 delta-smpB, growth: N-lim chemostat, doubling time 6 h
[6] = wild type E. coli NCM3722, growth: C-lim chemostat, doubling time 3 h
[7] = wild type E. coli NCM3722, growth: C-lim chemostat, doubling time 6 h
[8] = wild type E. coli NCM3722, growth: C-lim chemostat, doubling time 12 h
[9] = wild type E. coli NCM3722, growth: N-lim chemostat, doubling time 6 h
[10] = wild type E. coli NCM3722, growth: N-lim chemostat, doubling time 12 h
[11] = wild type E. coli NCM3722, growth: P-lim chemostat, doubling time 6 h
[12] = wild type E. coli NCM3722, growth: P-lim chemostat, doubling time 12 h

Q: For “MAGNDREPIGRKGKPTRPVKQKVSRRRYEDDDDYDDYDDYEDEEPMPRKGKGKGKGRKPRGKRGWLWLLLKLAIVFAVLIAIYGVYLDQKIRSRIDGKVWQLPAAVYGRMVNLEPDMTISKNEMVKLLEATQYRQVSKMTRPGEFTVQANSIEMIRRPFDFPDSKEGQVRARLTFDGDHLATIVNMENNRQFGFFRLDPRLITMISSPNGEQRLFVPRSGFPDLLVDTLLATEDRHFYEHDGISLYSIGRAVLANLTAGRTVQGASTLTQQLVKNLFLSSERSYWRKANEAYMALIMDARYSKDRILELYMNEVYLGQSGDNEIRGFPLASLYYFGRPVEELSLDQQALLVGMVKGASIYNPWRNPKLALERRNLVLRLLQQQQIIDQELYDMLSARPLGVQPRGGVISPQPAFMQLVRQELQAKLGDKVKDLSGVKIFTTFDSVAQDAAEKAAVEGIPALKKQRKLSDLETAIVVVDRFSGEVRAMVGGSEPQFAGYNRAMQARRSIGSLAKPATYLTALSQPKIYRLNTWIADAPIALRQPNGQVWSPQNDDRRYSESGRVMLVDALTRSMNVPTVNLGMALGLPAVTETWIKLGVPKDQLHPVPAMLLGALNLTPIEVAQAFQTIASGGNRAPLSALRSVIAEDGKVLYQSFPQAERAVPAQAAYLTLWTMQQVVQRGTGRQLGAKYPNLHLAGKTGTTNNNVDTWFAGIDGSTVTITWVGRDNNQPTKLYGASGAMSIYQRYLANQTPTPLNLVPPEDIADMGVDYDGNFVCSGGMRILPVWTSDPQSLCQQSEMQQQPSGNPFDQSSQPQQQPQQQPAQQEQKDSDGVAGWIKDMFGSN”, which “total protein half-life in vivo” value [1] is on record?
A: 6.443 ± 0.011 h

Q: What about the “total protein half-life in vivo” value [2] of the same sequence?
A: 6.43 ± 0.51 h

Q: And the “total protein half-life in vivo” value [3]?
A: 6.2211 ± 0.00055 h

Q: And the “total protein half-life in vivo” value [4]?
A: 6.266 ± 0.031 h

Q: And the “total protein half-life in vivo” value [5]?
A: 6.19 ± 0.56 h

Q: What about the “total protein half-life in vivo” value [6] of the same sequence?
A: 3.17 ± 0.036 h

Q: What about the “total protein half-life in vivo” value [7] of the same sequence?
A: 6.09 ± 0.71 h

Q: And the “total protein half-life in vivo” value [8]?
A: 12.4 ± 1.3 h

Q: And the “total protein half-life in vivo” value [9]?
A: 6.01 ± 0.19 h

Q: And the “total protein half-life in vivo” value [10]?
A: 12.5 ± 0.15 h

Q: What about the “total protein half-life in vivo” value [11] of the same sequence?
A: 6.15 ± 0.58 h

Q: And the “total protein half-life in vivo” value [12]?
A: 12.4 ± 0.17 h

Q: Which “total protein half-life in vivo” value [8] does the source give for “MAKNTSCGVQLRIRGKVQGVGFRPFVWQLAQQLNLHGDVCNDGDGVEVRLREDPETFLVQLYQHCPPLARIDSVEREPFIWSQLPTEFTIRQSTGGTMNTQIVPDAATCPACLAEMNTPGERRYRYPFINCTHCGPRFTIIRAMPYDRPFTVMAAFPLCPACDKEYRDPLDRRFHAQPVACPECGPHLEWVSHGEHAEQEAALQAAIAQLKMGKIVAIKGIGGFHLACDARNSNAVATLRARKHRPAKPLAVMLPVADGLPDAARQLLTTPAAPIVLVDKKYVPELCDDIAPDLNEVGVMLPANPLQHLLLQELQCPLVMTSGNLSGKPPAISNEQALADLQGIADGFLIHNRDIVQRMDDSVVRESGEMLRRSRGYVPDALALPPGFKNVPPVLCLGADLKNTFCLVRGEQAVLSQHLGDLSDDGIQMQWREALRLMQNIYDFTPQYVVHDAHPGYVSSQWAREMNLPTQTVLHHHAHAAACLAEHQWPLDGGDVIALTLDGIGMGENGALWGGECLRVNYRECEHLGGLPAVALPGGDLAAKQPWRNLLAQCLRFVPEWQNYSETASVQQQNWSVLARAIERGINAPLASSCGRFFDAVAAALGCAPATLSYEGEAACALEALAASCHGVTHPVTMPRVDNQLDLATFWQQWLNWQAPVNQRAWAFHDALAQGFAALMREQATMRGITTLVFSGGVIHNRLLRARLAHYLADFTLLFPQSLPAGDGGLSLGQGVIAAARWLAGEVQNG” here?
A: 9.74 ± 2.4 h

Q: What does the source list for “MDHLPIFCQLRDRDCLIVGGGDVAERKARLLLDAGARLTVNALAFIPQFTAWADAGMLTLVEGPFDESLLDTCWLAIAATDDDALNQRVSEAAEARRIFCNVVDAPKAASFIMPSIIDRSPLMVAVSSGGTSPVLARLLREKLESLLPLHLGQVAKYAGQLRGRVKQQFATMGERRRFWEKLFVNDRLAQSLANNDQKAITETTEQLINEPLDHRGEVVLVGAGPGDAGLLTLKGLQQIQQADVVVYDRLVSDDIMNLVRRDADRVFVGKRAGYHCVPQEEINQILLREAQKGKRVVRLKGGDPFIFGRGGEELETLCNAGIPFSVVPGITAASGCSAYSGIPLTHRDYAQSVRLITGHLKTGGELDWENLAAEKQTLVFYMGLNQAATIQQKLIEHGMPGEMPVAIVENGTAVTQRVIDGTLTQLGELAQQMNSPSLIIIGRVVGLRDKLNWFSNH [P0AEA8]”?
A: total protein half-life in vivo [1]: 5.19 ± 0.22 h; total protein half-life in vivo [2]: 4.33 ± 0.24 h; total protein half-life in vivo [3]: 4.17 ± 0.56 h; total protein half-life in vivo [4]: 5.23 ± 0.94 h; total protein half-life in vivo [5]: 4.7 ± 0.87 h; total protein half-life in vivo [6]: 3.42 ± 0.48 h; total protein half-life in vivo [7]: 5.47 ± 0.28 h; total protein half-life in vivo [8]: 10.12 ± 0.019 h; total protein half-life in vivo [9]: 4.39 ± 0.22 h; total protein half-life in vivo [10]: 7.57 ± 0.15 h; total protein half-life in vivo [11]: 6.43 ± 1.1 h; total protein half-life in vivo [12]: 13.6 ± 2.6 h

Q: Which “total protein half-life in vivo” value [1] does the source give for “MSSRVLTPDVVGIDALVHDHQTVLAKAEGGVVAVFANNAPAFYAVTPARLAELLALEEKLARPGSDVALDDQLYQEPQAAPVAVPMGKFAMYPDWQPDADFIRLAALWGVALREPVTTEELASFIAYWQAEGKVFHHVQWQQKLARSLQIGRASNGGLPKRDVNTVSEPDSQIPPGFRG [P0A8J2]” here?
A: 4.71 ± 0.31 h

Q: What about the “total protein half-life in vivo” value [2] of the same sequence?
A: 4.26 h

Q: What about the “total protein half-life in vivo” value [3] of the same sequence?
A: 1.78 ± 0.14 h

Q: And the “total protein half-life in vivo” value [7]?
A: 3.49 h

Q: What about the “total protein half-life in vivo” value [8] of the same sequence?
A: 5.15 ± 0.3 h

Q: What about the “total protein half-life in vivo” value [10] of the same sequence?
A: 2.93 ± 0.94 h

Q: And the “total protein half-life in vivo” value [11]?
A: 2.68 ± 0.39 h

Q: What about the “total protein half-life in vivo” value [12] of the same sequence?
A: 5.6 ± 0.28 h

Q: For “MKKVTAMLFSMAVGLNAVSMAAKAKASEEQETDVLLIGGGIMSATLGTYLRELEPEWSMTMVERLEGVAQESSNGWNNAGTGHSALMELNYTPQNADGSISIEKAVAINEAFQISRQFWAHQVERGVLRTPRSFINTVPHMSFVWGEDNVNFLRARYAALQQSSLFRGMRYSEDHAQIKEWAPLVMEGRDPQQKVAATRTEIGTDVNYGEITRQLIASLQKKSNFSLQLSSEVRALKRNDDNTWTVTVADLKNGTAQNIRAKFVFIGAGGAALKLLQESGIPEAKDYAGFPVGGQFLVSENPDVVNHHLAKVYGKASVGAPPMSVPHIDTRVLDGKRVVLFGPFATFSTKFLKNGSLWDLMSSTTTSNVMPMMHVGLDNFDLVKYLVSQVMLSEEDRFEALKEYYPQAKKEDWRLWQAGQRVQIIKRDAEKGGVLRLGTEVVSDQQGTIAALLGASPGASTAAPIMLNLLEKVFGDRVSSPQWQATLKAIVPSYGRKLNGDVAATERELQYTSEVLGLNYDKPQAADSTPKPQLKPQPVQKEVADIAL”, which “total protein half-life in vivo” value [1] is on record?
A: 3.81 ± 0.31 h

Q: What about the “total protein half-life in vivo” value [2] of the same sequence?
A: 2.29 ± 0.29 h

Q: And the “total protein half-life in vivo” value [3]?
A: 1.1 ± 0.013 h

Q: And the “total protein half-life in vivo” value [4]?
A: 0.95 h

Q: And the “total protein half-life in vivo” value [5]?
A: 1.15 ± 0.2 h

Q: What about the “total protein half-life in vivo” value [9] of the same sequence?
A: 1.19 ± 0.58 h

Q: What about the “total protein half-life in vivo” value [10] of the same sequence?
A: 1.46 ± 0.27 h

Q: Which results are given for “MQTVIFGRSGCPYCVRAKDLAEKLSNERDDFQYQYVDIRAEGITKEDLQQKAGKPVETVPQIFVDQQHIGGYTDFAAWVKENLDA”?
A: total protein half-life in vivo [1]: 5.87 h; total protein half-life in vivo [2]: 3.94 h; total protein half-life in vivo [3]: 3.72 h; total protein half-life in vivo [4]: 4.75 ± 0.46 h; total protein half-life in vivo [5]: 3.33 h; total protein half-life in vivo [6]: 2.14 h; total protein half-life in vivo [7]: 4.99 h; total protein half-life in vivo [8]: 6.22 h; total protein half-life in vivo [9]: 3.39 h; total protein half-life in vivo [10]: 5.49 h; total protein half-life in vivo [11]: 4.16 h; total protein half-life in vivo [12]: 7.26 ± 0.75 h

Q: With “MPDQTQQFSFKVLTINIHKGFTAFNRRFILPELRDAVRTVSADIVCLQEVMGAHEVHPLHVENWPDTSHYEFLADTMWSDFAYGRNAVYPEGHHGNAVLSRYPIEHYENRDVSVDGAEKRGVLYCRIVPPMTGKAIHVMCVHLGLREAHRQAQLAMLAEWVNELPDGEPVLVAGDFNDWRQKANHPLKVQAGLDEIFTRAHGRPARTFPVQFPLLRLDRIYVKNASASAPTALPLRTWRHLSDHAPLSAEIHL [P0AAW1]” as the sequence, how does the “total protein half-life in vivo” value [1] read?
A: 6.17 ± 0.23 h

Q: And the “total protein half-life in vivo” value [2]?
A: 6.2 ± 0.43 h

Q: And the “total protein half-life in vivo” value [4]?
A: 5.85 ± 0.22 h

Q: And the “total protein half-life in vivo” value [5]?
A: 5.57 ± 0.47 h

Q: What about the “total protein half-life in vivo” value [6] of the same sequence?
A: 2.68 ± 0.41 h

Q: What about the “total protein half-life in vivo” value [7] of the same sequence?
A: 4.96 ± 0.51 h

Q: And the “total protein half-life in vivo” value [8]?
A: 10.9 ± 3 h

Q: And the “total protein half-life in vivo” value [9]?
A: 5.11 ± 0.57 h

Q: And the “total protein half-life in vivo” value [10]?
A: 13.9 ± 0.67 h

Q: And the “total protein half-life in vivo” value [11]?
A: 5.16 ± 0.24 h

Q: What about the “total protein half-life in vivo” value [12] of the same sequence?
A: 11.5 ± 0.52 h
